From article PMC10287916, “MSH2-MSH3 promotes DNA end resection during homologous recombination and blocks polymerase theta-mediated end-joining through interaction with SMARCAD1 and EXO1” (Nucleic Acids Research, 2023) come the findings set out here.

The target in assay [1] is T1, MSH2-MSH3 (MutSβ), purified (human, UniProt P43246 1-934; P20585 1-1137).
T1 construct: MSH2, human, full length; MSH3, human, full length; Purified on a HisTrap HP column; also called MSH2-MSH3 heterodimer; source: Hi5 insect cells (baculovirus), purified (HisTrap HP, Superdex 200)
Description: co-IP; in vitro immunoprecipitation: purified first protein on antibody-conjugated Dynabead protein G, washed with buffer X, second purified protein added for 1 h; western blot. Conditions: both partners purified. For orientation: In western blotting, separated proteins are transferred to a membrane and probed.

For assay [2], the target named is T2, MSH2-MSH6 (MutSα), purified (human, UniProt P43246 1-934; P52701 1-1360).
T2 construct: MSH2, human, full length; MSH6, human, full length; source: Hi5 insect cells (baculovirus), purified (HiTrap Heparin HP, HiTrap Q HP, Superdex 200)
Put plainly: native gel or EMSA; 4 μM or 8 μM SMARCAD1 incubated with 1 nM Cy5-labeled 40 bp homoduplex, GT mismatch or 58 bp flap DNA in buffer H with 1 mM ATP, then MSH2-MSH6 titrated, 5 min. Conditions: both partners purified. For orientation: In EMSA bound probe runs differently from free probe, usually more slowly.

T1 sequence (P43246 whole entry, chain 1 of 2): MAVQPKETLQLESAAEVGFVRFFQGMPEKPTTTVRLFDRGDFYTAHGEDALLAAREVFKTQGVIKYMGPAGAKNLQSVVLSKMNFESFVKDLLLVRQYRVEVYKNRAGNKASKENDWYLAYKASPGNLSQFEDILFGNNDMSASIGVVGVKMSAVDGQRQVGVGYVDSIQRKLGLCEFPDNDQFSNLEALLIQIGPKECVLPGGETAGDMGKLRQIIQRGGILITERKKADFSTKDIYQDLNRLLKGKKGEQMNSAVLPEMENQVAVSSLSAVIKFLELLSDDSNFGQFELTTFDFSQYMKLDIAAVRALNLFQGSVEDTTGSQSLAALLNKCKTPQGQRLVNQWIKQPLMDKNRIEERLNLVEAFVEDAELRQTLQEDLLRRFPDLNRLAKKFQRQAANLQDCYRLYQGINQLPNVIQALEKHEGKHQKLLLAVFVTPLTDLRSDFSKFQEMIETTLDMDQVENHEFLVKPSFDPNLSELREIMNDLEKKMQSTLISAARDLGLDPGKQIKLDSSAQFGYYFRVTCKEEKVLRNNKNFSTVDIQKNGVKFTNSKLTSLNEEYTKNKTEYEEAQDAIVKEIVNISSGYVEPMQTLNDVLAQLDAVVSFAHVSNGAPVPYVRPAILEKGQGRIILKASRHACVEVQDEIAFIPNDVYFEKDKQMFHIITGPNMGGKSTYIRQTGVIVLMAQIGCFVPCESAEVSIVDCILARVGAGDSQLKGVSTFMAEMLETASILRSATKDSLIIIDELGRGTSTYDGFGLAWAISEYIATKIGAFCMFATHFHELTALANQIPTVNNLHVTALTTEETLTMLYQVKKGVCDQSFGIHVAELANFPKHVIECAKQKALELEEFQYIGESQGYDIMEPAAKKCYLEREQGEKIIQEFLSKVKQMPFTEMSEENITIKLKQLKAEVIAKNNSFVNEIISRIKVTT
T1 sequence (P20585 whole entry, chain 2 of 2): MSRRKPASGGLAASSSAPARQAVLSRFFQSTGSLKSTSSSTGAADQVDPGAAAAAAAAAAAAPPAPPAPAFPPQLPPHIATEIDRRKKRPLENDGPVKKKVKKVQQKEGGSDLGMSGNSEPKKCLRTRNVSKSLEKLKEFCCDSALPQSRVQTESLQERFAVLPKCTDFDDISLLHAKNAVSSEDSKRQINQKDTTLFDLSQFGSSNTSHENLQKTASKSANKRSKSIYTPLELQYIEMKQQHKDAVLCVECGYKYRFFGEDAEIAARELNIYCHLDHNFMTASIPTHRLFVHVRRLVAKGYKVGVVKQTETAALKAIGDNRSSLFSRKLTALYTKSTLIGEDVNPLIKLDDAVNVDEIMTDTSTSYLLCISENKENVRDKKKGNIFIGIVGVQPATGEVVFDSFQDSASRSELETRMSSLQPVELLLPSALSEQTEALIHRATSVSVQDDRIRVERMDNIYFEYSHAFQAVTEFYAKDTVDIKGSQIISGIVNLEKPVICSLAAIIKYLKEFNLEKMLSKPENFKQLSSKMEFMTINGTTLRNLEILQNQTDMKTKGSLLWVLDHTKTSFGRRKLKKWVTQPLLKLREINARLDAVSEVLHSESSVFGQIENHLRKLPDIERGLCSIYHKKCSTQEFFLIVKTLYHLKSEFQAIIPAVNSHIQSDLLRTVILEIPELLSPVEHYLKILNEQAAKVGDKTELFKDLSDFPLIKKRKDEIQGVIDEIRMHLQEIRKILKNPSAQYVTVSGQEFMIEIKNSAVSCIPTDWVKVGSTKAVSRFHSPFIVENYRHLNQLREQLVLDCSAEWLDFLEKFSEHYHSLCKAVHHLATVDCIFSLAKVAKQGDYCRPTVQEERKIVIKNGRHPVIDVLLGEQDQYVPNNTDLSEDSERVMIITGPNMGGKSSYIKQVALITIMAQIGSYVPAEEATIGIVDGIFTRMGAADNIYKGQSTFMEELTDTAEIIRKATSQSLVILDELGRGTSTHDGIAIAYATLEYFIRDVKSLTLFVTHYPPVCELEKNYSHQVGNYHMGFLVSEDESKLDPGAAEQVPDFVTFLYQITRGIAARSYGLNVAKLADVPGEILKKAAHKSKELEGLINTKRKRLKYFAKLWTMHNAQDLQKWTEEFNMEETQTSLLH
T2 sequence (P43246 whole entry, chain 1 of 2): as the sequence (P43246 whole entry, chain 1 of 2) above
T2 sequence (P52701 whole entry, chain 2 of 2): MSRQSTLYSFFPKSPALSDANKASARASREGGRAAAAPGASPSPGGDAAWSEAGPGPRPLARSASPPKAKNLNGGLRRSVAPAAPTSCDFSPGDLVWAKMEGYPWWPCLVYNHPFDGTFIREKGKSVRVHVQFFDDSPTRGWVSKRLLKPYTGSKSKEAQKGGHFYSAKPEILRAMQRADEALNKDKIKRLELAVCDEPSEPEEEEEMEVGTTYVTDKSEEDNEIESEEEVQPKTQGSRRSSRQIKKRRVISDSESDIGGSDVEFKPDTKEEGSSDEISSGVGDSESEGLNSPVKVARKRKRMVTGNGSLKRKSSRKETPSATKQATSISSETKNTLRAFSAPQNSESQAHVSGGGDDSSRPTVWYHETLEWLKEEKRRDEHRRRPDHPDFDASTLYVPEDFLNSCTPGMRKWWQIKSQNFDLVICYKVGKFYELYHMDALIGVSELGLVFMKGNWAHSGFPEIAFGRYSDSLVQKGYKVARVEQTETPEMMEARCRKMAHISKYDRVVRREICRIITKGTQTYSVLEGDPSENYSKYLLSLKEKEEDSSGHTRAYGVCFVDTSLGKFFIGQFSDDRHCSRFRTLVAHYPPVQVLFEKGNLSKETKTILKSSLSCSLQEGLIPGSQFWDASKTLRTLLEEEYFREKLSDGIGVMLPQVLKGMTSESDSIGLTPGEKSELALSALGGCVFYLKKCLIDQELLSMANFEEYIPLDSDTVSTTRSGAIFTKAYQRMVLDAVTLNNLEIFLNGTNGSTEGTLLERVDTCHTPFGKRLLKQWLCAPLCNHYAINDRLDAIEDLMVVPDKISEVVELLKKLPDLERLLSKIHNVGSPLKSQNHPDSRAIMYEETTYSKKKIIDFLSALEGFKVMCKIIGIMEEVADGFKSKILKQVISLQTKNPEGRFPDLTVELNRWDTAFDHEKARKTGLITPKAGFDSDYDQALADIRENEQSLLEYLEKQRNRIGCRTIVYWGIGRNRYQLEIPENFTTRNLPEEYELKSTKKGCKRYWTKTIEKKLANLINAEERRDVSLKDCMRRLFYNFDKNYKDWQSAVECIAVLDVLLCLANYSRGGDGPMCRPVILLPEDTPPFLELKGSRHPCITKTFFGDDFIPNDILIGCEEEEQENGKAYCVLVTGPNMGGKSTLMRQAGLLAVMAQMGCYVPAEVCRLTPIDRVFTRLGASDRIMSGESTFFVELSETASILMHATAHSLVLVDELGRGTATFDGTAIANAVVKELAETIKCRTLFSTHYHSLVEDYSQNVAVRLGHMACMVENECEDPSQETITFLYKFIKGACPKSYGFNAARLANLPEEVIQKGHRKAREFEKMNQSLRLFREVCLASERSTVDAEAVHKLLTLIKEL

B1: SMARCAD1, purified (enzyme, human, UniProt Q9H4L7 1-1026, looked up)
chain: MNLFNLDRFRFEKRNKIEEAPEATPQPSQPGPSSPISLSAEEENAEGEVSRANTPDSDITEKTEDSSVPETPDNERKASISYFKNQRGIQYIDLSSDSEDVVSPNCSNTVQEKTFNKDTVIIVSEPSEDEESQGLPTMARRNDDISELEDLSELEDLKDAKLQTLKELFPQRSDNDLLKLIESTSTMDGAIAAALLMFGDAGGGPRKRKLSSSSEPYEEDEFNDDQSIKKTRLDHGEESNESAESSSNWEKQESIVLKLQKEFPNFDKQELREVLKEHEWMYTEALESLKVFAEDQDMQYVSQSEVPNGKEVSSRSQNYPKNATKTKLKQKFSMKAQNGFNKKRKKNVFNPKRVVEDSEYDSGSDVGSSLDEDYSSGEEVMEDGYKGKILHFLQDASIGELTLIPQCSQKKAQKITELRPFNSWEALFTKMSKTNGLSEDLIWHCKTLIQERDVVIRLMNKCEDISNKLTKQVTMLTGNGGGWNIEQPSILNQSLSLKPYQKVGLNWLALVHKHGLNGILADEMGLGKTIQAIAFLAYLYQEGNNGPHLIVVPASTIDNWLREVNLWCPTLKVLCYYGSQEERKQIRFNIHSRYEDYNVIVTTYNCAISSSDDRSLFRRLKLNYAIFDEGHMLKNMGSIRYQHLMTINANNRLLLTGTPVQNNLLELMSLLNFVMPHMFSSSTSEIRRMFSSKTKSADEQSIYEKERIAHAKQIIKPFILRRVKEEVLKQLPPKKDRIELCAMSEKQEQLYLGLFNRLKKSINNLEKNTEMCNVMMQLRKMANHPLLHRQYYTAEKLKEMSQLMLKEPTHCEANPDLIFEDMEVMTDFELHVLCKQYRHINNFQLDMDLILDSGKFRVLGCILSELKQKGDRVVLFSQFTMMLDILEVLLKHHQHRYLRLDGKTQISERIHLIDEFNTDMDIFVFLLSTKAGGLGINLTSANVVILHDIDCNPYNDKQAEDRCHRVGQTKEVLVIKLISQGTIEESMLKINQQKLKLEQDMTTVDEGDEGSMPADIATLLKTSMGL
notes: SMARCAD1, human, full length; source: Hi5 insect cells (baculovirus), purified (HisTrap HP, Superdex 200)
As to B1, the binding result in assay [1] and in assay [2] was “binds” throughout.
